Legend:
[1] = test system: split Nanoluciferase (LgBiT/SmBiT) reconstitution in HEK293 cells; assay: Split NanoLuc reconstitution assay (NanoBiT); type: cell-based, human; conditions: 100 nM simeprevir over no simeprevir; LgBiT fused to the C-terminus of the PRSIM binding module
Method: The ability of the PRSIM binding molecules to promote dimerization of two proteins to which they are fused was assessed with the NanoBiT system (Promega) that measures the reconstitution of a split Nanoluciferase (NanoLuc) and the resultant luminescence upon supply of a live cell imaging Nano-Glo NanoLuc substrate (FIG. 8). In the NanoBiT system, one interaction partner is fused via a flexible linker to an 18 kDa fragment of NanoLuc termed LgBiT (for “large bit”) (SEQ ID NO: 16) and the other is fused via an equivalent linker to a 1.3 kDa peptide SmBiT (“small bit”) (SEQ ID NO: 17). LgBit and SmBiT have a low affinity (190 μM) for each other in the absence of interacting partners and will not reconstitute to form an active luciferase enzyme. Once fused to the interacting proteins of a CID and supplied with inducer, they will reconstitute, and luminescence can be measured. The NanoBiT system supplies two sets of control proteins fused to LgBiT and SmBiT: a set of constitutively interacting proteins PRKAR2A:PRKACA; and the FRB:FKBP12 pair whose dimerization can be induced with rapamycin.
To establish the optimal orientation of the HCV NS3/4A PR (S139A) and PRSIM components, constructs whereby HCV NS3/4A PR (S139A) was fused at either the N- or C-terminus to SmBiT (SEQ ID NOs: 18 and 19, respectively) and a parallel set of constructs for each PRSIM binding module fused to either the N- or C-terminus of LgBiT (SEQ ID NOS: 20-30 and 31-41, respectively). The NanoBiT kit (Promega) supplies a set of vectors enabling these constructs to be generated. DNA strings encoding HCV NS3/4A PR (S139A) and the PRSIM molecules were purchased from GeneArt and amplified via PCR with primers with extensions containing restriction sites compatible with the NanoBiT vectors and were cloned via Gibson assembly. All constructs were verified via Sanger sequencing of the entire coding sequence.
All NanoBiT screens were performed in adherent HEK293 cells cultured in 96-well plates. Cells enzymatically dissociated from a tissue culture flask were counted and plated at 2×10^4 cells/well in a white, opaque-bottomed 96-well plate (Costar 3917). The plates were incubated overnight at 37° C. with 5% CO2 to allow the cells to adhere. On day 2, plasmids were co-transfected with Lipofectamine LTX (ThermoFisher) at a final concentration of 100 ng/well (50 ng/plasmid, one encoding a SmBiT fusion, the other a LgBiT fusion). On day 3, wells were treated with 100 nM of the appropriate small molecule inducer (rapamycin (FRB:FKBP12) or simeprevir (HCV NS3/4A PR:PRSIM)) or vehicle control, and luminescence was quantified with an Envision plate reader immediately following addition of Nano-Glo Live Cell Substrate (Promega).

[2] = test system: NanoLuc-PEST reporter in HEK293 cells; assay: Transcriptional regulation assay (split transcription factor), NanoLuc-PEST reporter; type: cell-based, human
Source text: The iDimerize regulated transcription system (Takara) was used to test the ability of PRSIM-based CIDs to regulate gene expression. […] The DBD and AD are separately fused to the two protein components of a CID such that, only in the presence of the small molecule inducer, the AD is brought into close proximity to the DBD, recruiting the transcription machinery to a promoter harbouring the DBD recognition sites. The iDimerize regulated transcription system (Takara) provides two vectors, pHet-Act1-2 and pZFHD1-Luciferase. […]
All transcriptional regulation assays were performed in adherent HEK293 cells cultured in 384-well plates. Cells enzymatically dissociated from a tissue culture flask were counted and plated at 7.5×10^3 cells/well in a 384-well plate. […] On day 3, wells were treated with different concentrations of either A/C heterodimeriser (for the FRB:FKBP12 control), simeprevir or with vehicle control, and 24 hours later luminescence was quantified with an Envision plate reader immediately following addition of SteadyGlo luciferase substrate (Promega) or Nano-Glo Vivazine luciferase substrate (Promega). Alternatively, reverse transfections were carried out on Day 1, addition of dimeriser on Day 2 and luminescence quantified 24 hours later on Day 3. […]

B1: PRSIM_33: Tn3 PRSIM binding molecule, SEQ ID NO: 7 (protein)
chain: RLDAPSQIEVKDVTDTTALITWYPPGRWYDDIWYFELTYGIKDVPGDRTTIKLARGDDVYSIGNLKPDTEYEVSLISWGPDRGDRAGSNPAKITFKTGL
modifications: PRSIM_33
- fold-change in luminescence [1]: 9 fold

B2: PRSIM_23: Tn3 protein specific for HCV NS3/4A PR (S139A):simeprevir complex, SEQ ID NO: 5 (protein)
chain: RLDAPSQIEVKDVTDTTALITWVDPRYDDIWWFELTYGIKDVPGDRTTIKLYLNDPYYSIGNLKPDTEYEVSLISYTGDSYSRSGSNPAKITFKTGL
modifications: PRSIM_23
- fold change of NanoLuc-PEST expression ([2]; one copy of the DBD fusion partner): 55 fold
- fold change of NanoLuc-PEST expression ([2]; three copies of the DBD fusion partner): 100 fold
- fold-change in luminescence [1]: 31 fold

B3: PRSIM_57: scFv specific for HCV NS3/4A PR (S139A):simeprevir complex, SEQ ID NO: 12 (protein)
scFv: QVQLVQSGAEVKKPGSSVKVSCKASGGTFSSYAISWVRQAPGQGLEWMGGIIPIFGTANYAQKFQGRVTITADESTSTAYMELSSLRSEDTAVYYCARHTNYITVFDYWGQGTLVTVSSGGGGSGGGGSGGGGSAQSVLTQPPSASGTPGQRVTISCSGSSSNIGSNTVNWYQQLPGTAPKLLIYSNNQRPSGVPDRFSGSKSGTSASLAISGLQSEDEADYYCAAWDHHWEQVVFGGGTKLTVL
modifications: PRSIM_57
- fold-change in luminescence [1]: 14 fold

From patent publication US20220380801A1, “TRIPARTITE SYSTEMS FOR PROTEIN DIMERIZATION AND METHODS OF USE” (priority 2019, published 2022)
